Here are results for 3 molecules from publication PMC3539426, “Crystal Structure of a 9-Subunit Archaeal Exosome in Pre-Catalytic States of the Phosphorolytic Reaction” (Archaea, 2012).

First the molecules themselves.
T1: Rrp42 (S. solfataricus exosome RNase PH subunit) (S. solfataricus, UniProt Q9UXC0 1-275)
T1 construct: Rrp42, RNase PH subunit of the Sulfolobus solfataricus exosome; Three copies stand in the 9-subunit complex; source: E. coli, recombinantly expressed, purified
T1 sequence: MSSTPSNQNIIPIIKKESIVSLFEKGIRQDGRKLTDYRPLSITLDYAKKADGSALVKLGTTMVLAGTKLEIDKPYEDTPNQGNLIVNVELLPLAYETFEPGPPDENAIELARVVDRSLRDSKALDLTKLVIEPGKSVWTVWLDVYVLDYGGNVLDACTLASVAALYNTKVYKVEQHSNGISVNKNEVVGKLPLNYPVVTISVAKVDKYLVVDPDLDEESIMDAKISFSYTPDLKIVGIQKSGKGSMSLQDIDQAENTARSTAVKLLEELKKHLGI

B1: Rrp4 (S. solfataricus exosome RNA binding protein) (natural protein)
chain: MNMSQSQKIVLQPRSIVVPGELLAEGEFQIPWSPYILKINSKYYSTVVGLFDVKDTQFEVIPLEGSFYYPKINDIVIGLVEDVEIYGWVVDIKAPYKAYLPASNLLGRSINVGEDLRRYLDVGDYVIARIENFDRSIDPVLSVKGKDLGRVSNGIVIDIMPVKVPRVIGKNKSMYETLTSKSGCSIFVANNGRIWATCPSRFSEEILIEAIRKIENESHIKGLTDRIKQFIEEKLGERNASSGETKTNS
notes: Three copies stand in the 9-subunit complex; source: E. coli, recombinantly expressed, purified
B2: Rrp41^D182A (S. solfataricus exosome RNase PH subunit Rrp41 with the D182A point mutation) (enzyme)
chain: MREMLQVERPKLILDDGKRTDGRKPDELRSIKIELGVLKNADGSAIFEMGNTKAIAAVYGPKEMHPRHLSLPDRAVLRVRYHMTPFSTDERKNPAPSRREIELSKVIREALESAVLVELFPRTAIDVFTEILQADAGSRLVSLMAASLALADAGIPMRDLIAGVAVGKADGVIILDLNETEAMWGEADMPIAMMPSLNQVTLFQLNGSMTPDEFRQAFDLAVKGINIIYNLEREALKSKYVEFKEEGV
notes: Rrp41, RNase PH subunit of the Sulfolobus solfataricus exosome, with D182A; Three copies stand in the 9-subunit complex 3*(Rrp41/Rrp42/Rrp4); the construct is not described here; source: E. coli, recombinantly expressed, purified

In test [1] the target is S. solfataricus exosome, nonameric 3*(Rrp41/Rrp42/Rrp4) complex (Saccharolobus solfataricus, UniProt Q9UXC2, D182A). Particulars: 1.8 Å Pi-bound structure (4ba1), 10 mM Pi soak with 1 mM 7mer poly(A) RNA, RNA not visible; also 2.5 Å structure with RNA and Pi (4ba2); Rrp41 active site R99, G137, S138, R139; catalytically inactive.
Test [2] concerns the target T1, Rrp42 (S. solfataricus exosome RNase PH …). The test can be described thus: crystal structure; Rrp4/Rrp41^D182A/Rrp42 crystals, space group P213, one copy of each subunit in the asymmetric unit; soaked with 7 mer poly(A) RNA and Pi; 1.8 Å (Pi bound) and 2.5 Å (RNA and Pi bound). The note with it: both partners purified.
The target of test [3] is B1. The test is described as above. Particulars: both partners purified.

With `O=P(O)(O)O` [Pi, inorganic phosphate], the “X-ray crystal structure, crystal soaking” value in test [1] is recorded as “the Pi ion is bound by four residues from the Rrp41 subunit”. B1: the binding result in test [2] is on record as “binds”. In the case of B2, the binding result in test [2] and in test [3] was “binds” throughout.
